Bridge positions count the residues as written; N and C are the ends. * marks the point of attachment. tMeBn(DOTA-AET) = Cys-Cys bridge (thioethers) carrying DOTA-AET; tMeBn(DOTA-PP) = Cys-Cys bridge (thioethers) carrying DOTA-PP; Hexanoyl = CCCCCC(=O)*
T1: 5-HT1A (h) (human (printed (h))), P08908
T1 chain: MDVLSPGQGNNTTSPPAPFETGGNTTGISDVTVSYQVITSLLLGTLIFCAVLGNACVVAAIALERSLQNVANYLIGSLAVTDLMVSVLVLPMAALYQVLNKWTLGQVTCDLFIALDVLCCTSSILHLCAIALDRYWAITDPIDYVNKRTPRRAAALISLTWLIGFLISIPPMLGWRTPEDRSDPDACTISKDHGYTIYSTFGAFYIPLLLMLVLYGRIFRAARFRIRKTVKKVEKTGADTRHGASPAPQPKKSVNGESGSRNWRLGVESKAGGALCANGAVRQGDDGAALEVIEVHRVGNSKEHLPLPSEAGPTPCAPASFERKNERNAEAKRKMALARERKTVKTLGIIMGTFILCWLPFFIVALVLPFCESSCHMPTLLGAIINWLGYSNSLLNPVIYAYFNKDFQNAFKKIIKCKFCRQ

T2: 5-HT3 (h) (human (printed (h))), P46098
T2 chain: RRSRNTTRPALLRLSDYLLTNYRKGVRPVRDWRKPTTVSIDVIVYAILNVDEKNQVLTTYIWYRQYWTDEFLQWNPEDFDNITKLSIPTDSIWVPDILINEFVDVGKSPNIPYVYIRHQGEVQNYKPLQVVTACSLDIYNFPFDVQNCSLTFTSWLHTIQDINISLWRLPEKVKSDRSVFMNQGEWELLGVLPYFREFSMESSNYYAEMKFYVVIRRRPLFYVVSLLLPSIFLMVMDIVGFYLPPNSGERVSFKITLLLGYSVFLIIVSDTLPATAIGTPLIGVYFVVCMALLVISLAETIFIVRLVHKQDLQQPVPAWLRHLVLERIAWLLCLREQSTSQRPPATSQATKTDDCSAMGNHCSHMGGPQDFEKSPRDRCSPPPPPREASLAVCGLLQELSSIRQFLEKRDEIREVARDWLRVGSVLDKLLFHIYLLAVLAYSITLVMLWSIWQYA

T3: A2A (h) (human (printed (h))), P29274
T3 chain: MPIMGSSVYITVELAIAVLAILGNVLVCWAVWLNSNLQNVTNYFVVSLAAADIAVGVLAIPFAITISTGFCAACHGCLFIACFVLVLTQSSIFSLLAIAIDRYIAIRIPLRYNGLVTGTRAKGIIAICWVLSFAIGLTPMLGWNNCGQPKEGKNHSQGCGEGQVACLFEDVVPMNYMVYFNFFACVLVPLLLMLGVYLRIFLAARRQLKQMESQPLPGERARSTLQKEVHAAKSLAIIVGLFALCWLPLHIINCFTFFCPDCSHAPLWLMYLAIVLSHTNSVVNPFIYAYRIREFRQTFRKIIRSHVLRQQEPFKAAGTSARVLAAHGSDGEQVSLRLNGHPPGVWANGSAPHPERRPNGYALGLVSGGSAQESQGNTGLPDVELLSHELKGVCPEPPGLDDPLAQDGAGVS

T4: CB1 (h) (human (printed (h))), P21554
T4 chain: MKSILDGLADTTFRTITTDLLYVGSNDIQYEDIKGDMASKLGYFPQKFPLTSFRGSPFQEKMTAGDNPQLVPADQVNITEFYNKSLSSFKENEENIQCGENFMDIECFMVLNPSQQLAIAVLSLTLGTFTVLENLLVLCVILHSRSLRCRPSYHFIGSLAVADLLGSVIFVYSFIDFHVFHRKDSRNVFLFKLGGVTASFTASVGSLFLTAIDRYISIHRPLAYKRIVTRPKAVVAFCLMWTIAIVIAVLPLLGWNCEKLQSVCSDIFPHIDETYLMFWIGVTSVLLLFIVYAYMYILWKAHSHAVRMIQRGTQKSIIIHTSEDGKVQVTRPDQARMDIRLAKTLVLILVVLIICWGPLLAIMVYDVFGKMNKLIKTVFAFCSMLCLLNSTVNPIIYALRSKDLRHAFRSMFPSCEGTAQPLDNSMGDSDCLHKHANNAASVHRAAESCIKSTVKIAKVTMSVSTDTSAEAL

T5: GR (h) (human (printed (h))), P04150
T5 chain: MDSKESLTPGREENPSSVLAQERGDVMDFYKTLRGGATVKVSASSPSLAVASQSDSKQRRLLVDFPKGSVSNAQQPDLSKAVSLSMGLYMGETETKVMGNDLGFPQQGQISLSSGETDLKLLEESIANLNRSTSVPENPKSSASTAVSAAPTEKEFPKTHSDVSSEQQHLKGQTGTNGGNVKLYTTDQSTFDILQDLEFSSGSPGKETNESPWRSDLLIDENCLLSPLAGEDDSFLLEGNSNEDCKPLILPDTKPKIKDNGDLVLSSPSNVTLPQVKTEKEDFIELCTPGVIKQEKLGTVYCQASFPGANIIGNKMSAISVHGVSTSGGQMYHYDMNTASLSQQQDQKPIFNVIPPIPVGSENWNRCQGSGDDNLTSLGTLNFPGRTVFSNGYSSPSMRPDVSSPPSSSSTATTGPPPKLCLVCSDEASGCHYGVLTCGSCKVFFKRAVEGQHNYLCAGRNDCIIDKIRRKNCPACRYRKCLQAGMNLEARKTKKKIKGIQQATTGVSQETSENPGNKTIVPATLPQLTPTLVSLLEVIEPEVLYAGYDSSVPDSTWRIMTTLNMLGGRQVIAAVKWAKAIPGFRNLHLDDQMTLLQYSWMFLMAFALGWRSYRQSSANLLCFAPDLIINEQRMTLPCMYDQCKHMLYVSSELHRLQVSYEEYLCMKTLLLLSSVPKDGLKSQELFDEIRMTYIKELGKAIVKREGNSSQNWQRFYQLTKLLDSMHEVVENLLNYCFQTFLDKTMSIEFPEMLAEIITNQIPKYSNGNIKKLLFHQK


Assays:
Assay in all cases: radioligand displacement, 10 uM compound
Details in all cases: remark: other sources report otherwise
[1] = target: T1, 5-HT1A (h) (human (printed (h))), P08908
[2] = target: T2, 5-HT3 (h) (human (printed (h))), P46098
[3] = target: T3, A2A (h) (human (printed (h))), P29274
[4] = target: T4, CB1 (h) (human (printed (h))), P21554
[5] = target: T5, GR (h) (human (printed (h))), P04150
[6] = target: kappa (h) (KOP) (human (printed (h))), P41145
[7] = target: norepinephrine transporter (h) (human (printed (h))), P23975
Sequence of norepinephrine transporter (h) (human (printed (h))), P23975 (P23975 whole entry): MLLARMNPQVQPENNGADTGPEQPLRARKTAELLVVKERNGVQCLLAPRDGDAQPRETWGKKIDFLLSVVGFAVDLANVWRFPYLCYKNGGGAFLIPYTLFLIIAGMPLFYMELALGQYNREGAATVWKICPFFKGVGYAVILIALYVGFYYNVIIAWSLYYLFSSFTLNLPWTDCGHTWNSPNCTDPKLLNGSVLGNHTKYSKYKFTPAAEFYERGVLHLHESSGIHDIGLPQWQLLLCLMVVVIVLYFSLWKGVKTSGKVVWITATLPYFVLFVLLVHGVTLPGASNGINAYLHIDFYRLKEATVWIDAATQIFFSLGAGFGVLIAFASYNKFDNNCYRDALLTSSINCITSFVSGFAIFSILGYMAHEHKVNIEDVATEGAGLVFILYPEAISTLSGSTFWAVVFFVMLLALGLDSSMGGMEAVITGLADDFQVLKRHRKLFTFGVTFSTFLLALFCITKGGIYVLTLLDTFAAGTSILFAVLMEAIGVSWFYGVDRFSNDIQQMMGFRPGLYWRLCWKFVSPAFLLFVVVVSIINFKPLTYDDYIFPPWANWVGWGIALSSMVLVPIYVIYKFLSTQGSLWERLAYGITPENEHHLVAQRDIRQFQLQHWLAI

Sequence of kappa (h) (KOP) (human (printed (h))), P41145 (P41145 whole entry): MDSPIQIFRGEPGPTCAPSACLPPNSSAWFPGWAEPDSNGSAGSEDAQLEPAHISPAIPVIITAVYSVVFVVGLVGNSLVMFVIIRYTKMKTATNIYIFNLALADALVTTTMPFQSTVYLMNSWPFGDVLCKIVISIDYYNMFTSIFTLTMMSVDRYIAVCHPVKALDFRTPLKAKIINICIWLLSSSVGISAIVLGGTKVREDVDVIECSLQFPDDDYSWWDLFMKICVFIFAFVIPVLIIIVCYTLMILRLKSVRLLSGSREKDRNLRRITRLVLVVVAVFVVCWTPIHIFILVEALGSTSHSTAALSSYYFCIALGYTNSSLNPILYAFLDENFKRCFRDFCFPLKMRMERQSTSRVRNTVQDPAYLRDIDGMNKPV

% Inhibition of Specific Binding [1]	% Inhibition of Specific Binding [2]	% Inhibition of Specific Binding [3]	% Inhibition of Specific Binding [4]	% Inhibition of Specific Binding [5]	% Inhibition of Specific Binding [6]	% Inhibition of Specific Binding [7]	Binder
-5%	4%	-16%	-7%	0%	10%	-5%	Hexanoyl-CPPTQFC-OH (linker 1-7 via tMeBn(DOTA-AET)) [Hex-[Cys(tMeBn(DOTA-AET))-Pro-Pro-Thr-Gln-Phe-Cys]-OH (3BP-3554)]
-3%	2%	-4%	5%	-2%	7%	-8%	Hexanoyl-CPPTQFCD-NH2 (linker 1-7 via tMeBn(DOTA-PP)) [Hex-[Cys(tMeBn(DOTA-PP))-Pro-Pro-Thr-Gln-Phe-Cys]-Asp-NH2 (3BP-3407)]

From US20220315554A1, “COMPOUNDS COMPRISING A […] LIGAND AND USE THEREOF” (priority 2019, published 2022)
